Test results published in the nanobody polyreactivity screen of Harvey et al. (2022).

Assay: yeast display, Sf9 membrane polyspecificity reagent, FACS + sequencing; frameworks hold sequencing errors
How it was run: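 Sorting gates, low and high (top ~1%), were placed on anti-HA fluorescence to track expression and on streptavidin fluorescence to track reagent binding. A clone's polyreactivity label is taken from the gate it came out of. The reagent was 10% biotinylated, detergent-solubilized Sf9 membrane, applied for 1 hour at 4 °C to galactose-induced yeast display cells.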

Sequence	polyreactivity (PSR sort gate)
QVQLVESGGGLVQAGGSLRLSCAASGRTFRRYAIGWYRQAPGKERELVATISSGGSTNYADSVKGRFTISRDNAKNTVYLQMNSLKPEDTAVYYCATPQTRTYDYWGQGTQGTVSS	high polyreactivity
QVQLVESGGGLVQAGGSLRLSCAASGRIFYSYAMGWNRQAPGKESQLVARSTRGSSTYYADSVKGRLTISRDNAKKTFYVQMNSMKPEDTAVYYCAQSRYTALTNHWSHDYWGPGTQVTVSS	low polyreactivity
QVQLVESGGGLVQAGGSLRLSCAASGFTFGVYAMGWYRQAPGKERELVAAISTTVGSTYYADSVKGRFTISRDNAKNTVYLQMNSLKPEDTAVYYCNADGYPDVGAGTYGYWGQGTQVTVSS	low polyreactivity
QVQLVESGGGLVQAGGSLRLSCAASGRTFTRYTMGWYRQAPRKERELVAAITRGGTTYYADSVKGRFTISRDNAKNTVYLQMNSLKPEDTAVYYCNKRKQQSSDGYGYWGQGTQVTVSS	high polyreactivity
QVQLVETGGGLVQAGGSLRLSCAASGFTFAPYVMGWSRQAPGKERELVAAINWSGTRTYYADSVKGRFTFSRDNAKNTVYLQMNSLKPEDTAVYYCAARSVTVSGSLQPKRRYGYWGQGTQVTVSS	high polyreactivity
QVQLVESGGCLVQAGGSLRLSCAASGSIFGVNAMGGYRQPPGKDRELVASITGGDSTNYADSVKGRFTISRDNAKNTVYLQMNSLKPEDTAVYYCAKDHYYRYEEGDYWGLGTQVTVSS	low polyreactivity
QVQLVESGGGLVQAGGSLRLSCAASGRTFYIYAMGWYRPAPGKERELVAAITSGRSTSYADSVKGRFTISRDNAKNTVYLQMNSLKPEDTAVYYCAADQYTYWFGYDYWGQGTQVTVSS	low polyreactivity
QVQLVESGGGLVQAGGSLRLSCAASGRTFYVYNMGCYRQAPGKERELVAGISYSGGSTYYADSVKGRFTISRDNAKNTVYLQMNSLKPEDTAVYYSNAELYFPYFDGKTRLGGYWGLGTQVTVSS	low polyreactivity
QVQLVESGGGLVQAGGSLRLSCAASGSIFRGNTMGWYRQAPGKERELLAAINWTGGSTYYADSVKGRFTISRDNAKYTVYLQMNSLKPEDTAVYYCAARKFTSYYWGRSYGYWGQGTQVTVSS	high polyreactivity
QVQLVESGGGLVQAGGSLRLSCAASGRTFNHNPMRWYRQAPGKERELVAAISYSGGGTYYADSVKGRFTFSRDNAKNSVYLQMNSLKPEDTAVYFCAAYPVRGAYGYWGQGTQVTVSS	low polyreactivity
QVQLVESGGGLVQAGGSLRLSCAASGRTFVSNVMGWYRQAPGKERELVAAINWSGDSTYYADSVKGRFTISRDNAKNTVYLQMNSLKPEDTAVYYCARRNPLGGNEHDYWGQGTQVTVSS	low polyreactivity
QVQLVESGGGLVQAGGSLRLSCAASGNIFSYYAMGWYRQAPGKERELVAAIYTGGSTYYADSVKGRFTISRDNAKNTVYLQMNSLKPEDTEVYYCAASGLNLRQDYDYWGQGTQVTVSS	low polyreactivity
QVQLVQSGGGLVQAGGSLRLSCADSGFIFFTNAMGRYRQAPGQDREFVAAISDSSGSTYYADSVKGRFTISRDNAKNTVYLQMNSLKPEDTAVYYCAAEYPQVTIIGYYYYWGQGTQVTVSS	low polyreactivity
QVQLVESGGGLVQAGGSLRLSCAASGSTFDKNAMGWYRQAPGKERELVAAITWRGGRTYYADSVKGRFPISRDNAKNTVYLQMNSLKPEDTAVYYCNKVSWEQMDYWGQGTQVTVSS	low polyreactivity
QVQLVESGRGLVQAGGSLRLSCAASGSTFAWNAMGWYRQAPGKERELVAAINSGDSTYYADSVKGLFTISRDNAKNTVYLQMNSLKPEDTAVYYCATKYRGVWYTRGQTYYYWGQGTQVNVSS	high polyreactivity
QVQLVESGGGLVQAGGSLRLSCAASGSIFWTYAMGWYRQAPGKEREFVAAITFNYGSTYYADSVKGRFTISRDTAKNTVYLQMNSVKPEDTAVYYCNADTWYYYNFWSYIEYDYWGQGTQVTVSS	high polyreactivity
QVQLVESGGGLVQAGGSLRLSCAASGFIFVYNAMGWYRQAPGKEREFVASITWSGGRTYYADSVKGRFTISRDNAKNTVYLQMNSLKPEDTAVYYCATKYPNSQGRRYDYWGQGTQVTVSS	low polyreactivity
QVQLVESGGGLVKAGGSLRLRCAAAGLILYPYAMGWYRQAPGKESELVAAITSDGSTYYADSVKGRFTISRVNAKNTVYLQMNSLKQEDTAVYYCAVVVAYFDDDYGLSWFYEYDYWGQGTQVTVSS	low polyreactivity
QVQLVESGGGLVQAGGSLRLSCAASGSTSILYAMGWYRQAPGKERELVAAISRSGGSTYYADSVKGRFTISRDNAKNTVYLQMNSLKPEDTAVYYCAAQWVYQYGFNYWGQGTQVTVSS	high polyreactivity
QVQLVESGGGLVQAGGSLRLSCAASGFTFYANTMGWYRQAPGKERELVAAISKSGGRTYYADSVKGRFTISRDNAKNTVYLQMNSLKPEDTAVYYCAASSGYKRNYWGQGTQVTVSS	high polyreactivity
QVQLVESGGGLVQAGGSLRLSCAASGLIFPLYAMGWYRQAPGKERELVAAISRTGVSTDYADSVKGRFTISRDNAKNTVYLQMNSLKPEDTAVYYCNKVRTPRRRYDYWGQGTQVTVSS	low polyreactivity

Sequence	polyreactivity (PSR sort gate)
QVQLVESGGGLVHAGGSLRLSCAASGSIFRVYTMGWYRQAPGKERELVAAISRSGGRTYYADSVKGRFTISRDNAKNTVYLQMNSLKPEDTAVYYCATRPKVAYEYDYWGQGTQVTVSS	high polyreactivity
QVQLVESGGGLVQAGGSLRLSCAASGITFIGYAMGWYRQAPGKERELVASITSGANTNYADSVKGRFTISRDNAKNTVYLQMNSLKPEDTAVYYCAAPEHGTYANILGEPLDYWGQGTQVTVSS	low polyreactivity
QVQLVESGGGLVQAGGSLRLSCAASGFTFHNYAMGWYRQAPGKERELVAVIRWRGGSTYYADSVKGRFTISRDNAKNTVYLQMNSLKPEDTAVYYCNALFRYSRDYWGQGTQVTVSS	high polyreactivity
QVQLVESGGGLVQAGGSLRLSCAASGFIFPVYTMGWYRQAPGKERELVAAITQIGGSTHYADSVTGRFTISRDNAKNTVYLQMNSLKPEDTAVYYCNAVPSYGTEYDYWGQGTQVTVSS	low polyreactivity
QVQLVESGGGLVQAGGSLRLSCAASGITFGSYAMGGYRQAPGKERELVAAITRRGDNTYYADSVKGRFTISRDNAKNTVYLQMNSLKPEDTAVYYCNAAKGGRYPDYDYWGQGTQVTVSS	high polyreactivity
QVQLVESGGGLVQAGGRLRLSCAASGRIFAYYAMGWYRQAPGKERELVAGISQRGSRTYYADSVKGRFTNSRDNAKNTVYLQMNSLTPEDTAVYYCAARDRRTVTMDYWGQGTQVTVSS	high polyreactivity
QVQLVESWGGLVQAGGSLRLSCAASGRIFYGYAMAWYRQAPGKEREFVAAITVSAGSTYYADSVKGRFTISRDNAKNTVYLQMNSLKPEDTEVYYCAAKRYVYTSYRFVYWGQGTQVTVSS	low polyreactivity
QVQLVESGGGLVQAGGSLRLSCAASGIIFGVYAMGWYRQAPGQERELVAAIDGNGSSTYYADSVKGRFTISRDNAKNTVYLQMNSLKPEDTAVYYCAAGYWSYLYYWYDFDYWGQGTQVTVSS	low polyreactivity
QVQLVESGGGLVQAGCSLRLSCAASGRIFRYYAMGWYRQAPGKERELVAAISWSGGSTYYADSVKGRFTISRDNAKNTVYLQMNSLKPEYTAVYYCAARYSLKGGRYDYWGQGTQVTVSS	high polyreactivity
QVQLVESGGGLVQAGGSLRISCAASGITFVYYDMAWYRQAPGKDSELVAAISGGGSTNYADSVKGRFTISRDNAKNTVYLQRKSLKPEDTAVYYCNAELYYGDEGDSWGQGTLVTVSS	low polyreactivity
QVQLVESGGGLVQAGGSLRLSCAASGRIFYYNTMGWYRQAPGKARELVAAITTNGGSTYYADSVKGRFTISRDNAKNTVYLQMNSPKPEDTAVYYCNRDRYPYYYAYNYWGQGTQVTVSS	low polyreactivity
QVQLVESGGGLVQAGGSLRLSCAASGRIFPFNDMGWYREAPGKEREFVADISDNGGSTYADSVKGRFTISRDNAKNTVYLQMNSLKPEDTAVYYCNAVYTSYRGGYYYWGQGTQGTVSS	low polyreactivity
QDQLVESGGGLVQAGGSLRLSCASSGSTFPWYTMGWSRQAPGKERELVAAIDGSAGDTYYADSVKGRVTISRDNAKNTVYLQMNSLKPEDTAVYYCATRTWRWGYLHYDYWGQGTQVTVSS	low polyreactivity
QDQHVESGGGLVQAGGSLRLSCAASGLTFAVYTMGWYRPAAGKERELVAAITWDGGITYYADSVKGRFTISRDNAKNTVYLQMNSLKPEDTAVYYCAADSREVSTTAYYYWGQGTQVTLSS	low polyreactivity
QVQLVESGGGIVQAGGSLRLSCAASGSIFSYYAMGWYRMAPGKERELVAGITGGGSTDYADSLKGRFTISRDNAKNTVYLQMNSLKPEDTAVYYCAKRYVPWRPYDYWGKGTQVTVSS	low polyreactivity
QVHLLDSGGGLVQEGGSLRLSCAASGSTIYVYAMGWYRQAPGKERELVAAITWDGDRTYYADSVKGRFTISRHNAKNTVYLHMTSLNPEDSAVYYCNRDIGGTSVLDDYWGQGTQVTVSS	low polyreactivity
QVQLVESGGGLVQAGGSLRLSCAASGIIFDYYPMGWYRQAPGKERELVAGITRSGGRTYYADSVKGRFTISRDNAKNTVYLQMNSLKPEDTAVYYCAAQRGRRRWGGYWGQGTQVTVSS	high polyreactivity
QVQLVESGGGLVHAGGSLRLSCAASGSIFQYNAMGWYRQAPWKERELVAAITSTGDTNYADSVKGRFTISRDNAKNTVYLQMNSLKPEDTAVYYCAADVYGTVRRVGWYYVGEGYDYWGQGTQVTVSS	low polyreactivity
QVQLVESGGGLVQAGGSLRLSCAASGSTFDRNAMGWYRQAPGKERELVAAISRRGGRTYYADSVKGRFTISRDNAKNTVYLQMNSLKPEDTAVYYCAAGKITFPMDYWGQGTQVTVSS	high polyreactivity
QVQLVESGGGLVQAGGSLRLSCAASGSIFNRYAMGWYRQAPGKERELVAAIRSGDNTNYADSVKGRFTISRDNAKNTVYLQMNSLKPEDTAVYYCAKRTYYRSRTVGWGKMDYWGQGTQVTVSS	high polyreactivity
